Measurements from the supplement of paper PMC12042874.
± gives the uncertainty stated by the source.

Assay: amyloid nucleation score (Sup35N fusion, yeast selection) (log enrichment); library NNK2; higher = more nucleation; inactive = no reads after selection
Summary of the method: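 Nucleation score is defined as the DiMSum log enrichment of output over input reads, with centring on the mode score of non-aggregating sequences. A minimum of 100 input reads was required for each sequence. Reads came from Illumina sequencing of plasmid inserts from psi-negative yeast expressing Sup35N fused to peptides of 20 random codons, induced with 100 μM copper sulfate for 24 hours and grown 7 days at 30°C on medium lacking adenine and uracil.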
With INDVLFTTRRGHTIS the amyloid nucleation score was 2.75 ± 0.094. For CPCNGTNSLRLAYGYTGNNS, the amyloid nucleation score was “inactive”. In the case of NMYSCQYVCGTALDDDWVGC, the amyloid nucleation score is reported as 7.813 ± 0.059. HVHVNLYRTSGDIEHMSVQL showed an amyloid nucleation score of 8.391 ± 0.046. QHVFKVVSVALIMRCYDCGI gave an amyloid nucleation score of 1.64 ± 0.11. For WVLCRRNLLGH, the amyloid nucleation score was “inactive”. In the case of YLTLEMLAVDE, the amyloid nucleation score is reported as -0.52 ± 1.1. With FVLLFVYYFILFRLCRIQKV the amyloid nucleation score was “inactive”. In the case of VWVVCEFLAVVPKTKIFRTD, the amyloid nucleation score is reported as 0.721 ± 0.66. For IGVIKGFYWHK, the amyloid nucleation score was -0.343 ± 1.1. TMGYDSSTVTVFGGSMFLRL gave an amyloid nucleation score of 2.56 ± 0.2. Substance MLESWFMY has an amyloid nucleation score of -0.154 ± 0.49. Substance ICAGSGFRKGRINPELRVHW has an amyloid nucleation score of -1.24 ± 0.75. TLPSPIRYRVNTNNRM showed an amyloid nucleation score of 0.397 ± 0.54. In the case of NVRFY, the amyloid nucleation score is reported as “inactive”. TMYYVTGGV showed an amyloid nucleation score of 2.44 ± 0.056. Work on TLIGNDDLVVTCTYSYDPTL yielded an amyloid nucleation score of -0.145 ± 1.1. WVDGVLGFKSTLARQSETGG gave an amyloid nucleation score of -0.121 ± 1.1. With LYCILPLRL the amyloid nucleation score was “inactive”. For LYRMYPWVLVGCELFRMVCR, the amyloid nucleation score was 0.108 ± 0.38. Work on YYGVKSAM yielded an amyloid nucleation score of 0.074 ± 0.49. Substance PKIKHMMAWVMFVAFKVCSC has an amyloid nucleation score of -0.063 ± 0.29. SCCISPVSVIMRPSY showed an amyloid nucleation score of 3.79 ± 0.1. In the case of LMAKLPAINEYPPF, the amyloid nucleation score is reported as -0.04 ± 0.56. Substance RYGGRMAMRINYISIMSADY has an amyloid nucleation score of 0.138 ± 0.47. Work on YNPCLSRSHSKCLRTWLECR yielded an amyloid nucleation score of 1.26 ± 0.44. FSYRYIEDWCTNVGDLDVKL gave an amyloid nucleation score of -0.073 ± 0.26. With MNMRAGTEL the amyloid nucleation score was 0.479 ± 0.54. For VWTCIVFSR, the amyloid nucleation score was 6.22 ± 0.074. For FACIPIQCIGISGRGSRDRR, the amyloid nucleation score was 8.017 ± 0.044. With MPYALIR the amyloid nucleation score was -0.821 ± 0.35. With TVCSIMASFQYRDSRRQRSG the amyloid nucleation score was 4.02 ± 0.078. For YFRWGLSSKASLWHVRWALG, the amyloid nucleation score was 0.409 ± 0.8. For LLKFRVCPW, the amyloid nucleation score was 4.5 ± 0.086. For VLICFVSLRLKVGTLIPTTT, the amyloid nucleation score was -0.37 ± 0.76. With FIFVSNKYTNGIFAILGT the amyloid nucleation score was 1.98 ± 0.13. In the case of NLKDYIAFHNMSTAV, the amyloid nucleation score is reported as 2.22 ± 0.1. FCRNIKDYLDYCHRGVGPKK gave an amyloid nucleation score of 0.176 ± 0.76. For TIYVRQ, the amyloid nucleation score was -1.4 ± 1.1. Substance HTTASATPYFAGQV has an amyloid nucleation score of 0.042 ± 0.38. AWENYYSGLVNLLAASACIV gave an amyloid nucleation score of -0.163 ± 0.79. For FSLCSLAEVAKKVTTLRRDG, the amyloid nucleation score was -0.277 ± 1.1. LNPRNQCERRCFSVSGLKWY showed an amyloid nucleation score of -0.899 ± 0.64. TCGDGPATYTQT gave an amyloid nucleation score of 0.132 ± 0.38. Substance LSKLNGGSSVTSV has an amyloid nucleation score of 0.665 ± 0.2. MMHELHPRIELCG showed an amyloid nucleation score of 6.12 ± 0.062. In the case of RNVCGCPGCYFNVDAILLWY, the amyloid nucleation score is reported as -1.2 ± 1.1. Work on GSGNT yielded an amyloid nucleation score of 0.444 ± 0.56. NRGTEWISGECRYHWQDVRQ showed an amyloid nucleation score of 0.109 ± 0.21. With TKICWGSCRHLDLAFFLFLY the amyloid nucleation score was “inactive”. For YQARVTMCIPAWTMSECSQC, the amyloid nucleation score was -1.01 ± 0.76. WMYGWERSRVYDGNIVDRRW gave an amyloid nucleation score of 0.035 ± 1. VNFFNLINRRGTPNRWFYAS gave an amyloid nucleation score of 0.201 ± 1. Work on GSLKEAAGEYMVCRVRLSVG yielded an amyloid nucleation score of 0.26 ± 0.46. Substance VLGMYVFDRG has an amyloid nucleation score of 0.543 ± 0.46. For FFMCMQVWLRVFYVRGM, the amyloid nucleation score was -1.5 ± 0.36. Work on SLKSYVSVQFELASSVWILE yielded an amyloid nucleation score of 1.02 ± 0.24. Work on RYISYITSVSESRQGNRPYG yielded an amyloid nucleation score of -0.446 ± 0.28. Work on LVSADVCLGLMPSKSLGGRV yielded an amyloid nucleation score of 1.07 ± 0.54. With FILVCWISIFGLFMIPGMWD the amyloid nucleation score was -1.13 ± 0.64. In the case of FFGGYYYKLSQKLLRIAHYH, the amyloid nucleation score is reported as “inactive”. Work on ESHTGYNIPVIRSHPPYNRS yielded an amyloid nucleation score of -0.869 ± 0.64. QLGRYLCHTIFKHRLYICTW showed an amyloid nucleation score of 0.113 ± 1.1. Substance QTNTGIVESQRSVCLNKIAR has an amyloid nucleation score of 0.234 ± 0.17. In the case of LPFLPSCVVEKQVEYVWIRG, the amyloid nucleation score is reported as 0.332 ± 0.25. Work on NDVAKYACDKHSGNYGYSQG yielded an amyloid nucleation score of 0.011 ± 1.1. In the case of CYRDMALGGCNVNVQLFVEA, the amyloid nucleation score is reported as -0.049 ± 0.54. With TPHGIYEHLPQEY the amyloid nucleation score was -0.273 ± 0.49. RCGVYRVTHSEAERSLSISL showed an amyloid nucleation score of 0.698 ± 0.57. CSCNRLDYWAVNGRARRFKL gave an amyloid nucleation score of 0.932 ± 0.81. QFSLAVSTLSL gave an amyloid nucleation score of 1.48 ± 0.27. For ISFSSTSIHFGD, the amyloid nucleation score was 1.04 ± 0.11. MLFAVDLVYGPDPLVNELTW showed an amyloid nucleation score of 1.03 ± 0.4. Work on LSNEAWFGQGMLDGWGGGEG yielded an amyloid nucleation score of 0.514 ± 0.56. With ELLHFSSISTS the amyloid nucleation score was “inactive”. FMGRMLVIHL gave an amyloid nucleation score of 0.277 ± 0.41. Substance VVLTHY has an amyloid nucleation score of 0.386 ± 0.34. Work on QYHCPS yielded an amyloid nucleation score of -0.616 ± 0.5. With WKVSLGWNSHMCAGMETLWM the amyloid nucleation score was 4.18 ± 0.048. CMVMGNERM gave an amyloid nucleation score of -0.011 ± 0.22. In the case of ILMMNLNAADRIVNMHMSIL, the amyloid nucleation score is reported as “inactive”. With MYKGA the amyloid nucleation score was 0.595 ± 0.62. In the case of GVCNYPPCPGMMKGKTSLGN, the amyloid nucleation score is reported as 1.32 ± 0.26. In the case of WYVLFSMMWA, the amyloid nucleation score is reported as -1.36 ± 0.78. With FYKWGVVIFDGNCIEKWDIL the amyloid nucleation score was -1.52 ± 0.75. In the case of LFVLK, the amyloid nucleation score is reported as -0.843 ± 0.21. Work on VSSVRCNRVAYNPASGRGRR yielded an amyloid nucleation score of -0.124 ± 0.55. For TQSNALPVGPYSFTFFGRGY, the amyloid nucleation score was 0.54 ± 0.8. Substance DDRIGSRVYVRVMNTKFFIK has an amyloid nucleation score of 6.406 ± 0.045. STLVIVCFYICRHFSTYRVR showed an amyloid nucleation score of -0.832 ± 0.32. Work on IPDHFRTSSAYRLGDRHGG yielded an amyloid nucleation score of 0.103 ± 0.43. Work on PTRFSLDHWFPSVHYYPRLY yielded an amyloid nucleation score of -1.05 ± 1.1. ISPLHNSLKALRFGPPYSTL showed an amyloid nucleation score of -0.377 ± 0.4. With RHMWDHFCCFF the amyloid nucleation score was 5.28 ± 0.094. IDDDIFVMCCIEKHVLVCEF showed an amyloid nucleation score of 3.26 ± 0.047. HTLGIWLKREPWGMMYGLRG showed an amyloid nucleation score of 0.165 ± 1. ANDSSNYEYVILMRPNVIEV showed an amyloid nucleation score of -0.14 ± 0.49. With QKHAYAWLTPF the amyloid nucleation score was 1.54 ± 0.21. KQENMPDSAVVYCRRWGSDM showed an amyloid nucleation score of 0.057 ± 0.76. Work on DAGDVRQVKEAGLMAGS yielded an amyloid nucleation score of 0.527 ± 0.21. RCEVAMDGVESVKSFPA showed an amyloid nucleation score of 0.697 ± 0.35. Work on RWYSPWSWY yielded an amyloid nucleation score of 0.662 ± 0.36. In the case of DVSGLNIVERGYKRCTGGND, the amyloid nucleation score is reported as -0.054 ± 0.62. Work on FMTKTPLYVKSYSFWFDLVM yielded an amyloid nucleation score of 1.57 ± 0.36. QLDGWELATHRWCVILYVGC showed an amyloid nucleation score of -0.471 ± 0.48. CPFSYEPNFPLIGRGNFAIW showed an amyloid nucleation score of -0.987 ± 1. GTYRNIRVWCRFRWVFENGC gave an amyloid nucleation score of 0.11 ± 0.74. For LLDSPEWWYVLCATNWVYYM, the amyloid nucleation score was 2.88 ± 0.096. For KMGLRRFNFCARFEYRTSVA, the amyloid nucleation score was -0.048 ± 0.25. VMMIQTVQFRLTSKSSGMSR gave an amyloid nucleation score of 5.259 ± 0.043. Substance CYLLN has an amyloid nucleation score of -0.805 ± 0.44. GEYISEGDCTCRLQRMVVIE showed an amyloid nucleation score of -0.025 ± 0.76. With YGNCVHHVRGGLHAYRDHNC the amyloid nucleation score was -0.137 ± 0.33. YVLKIGSY gave an amyloid nucleation score of -0.617 ± 0.44. Work on DTGSPDGWAQWLPYSEFLGM yielded an amyloid nucleation score of -0.283 ± 0.65. For HHSWRYRLYVSIDSSFCLGA, the amyloid nucleation score was “inactive”. In the case of NFRSVFFAMCRSCVF, the amyloid nucleation score is reported as -0.145 ± 0.25. Work on TGLVVDCLAYRDCSVKQDRA yielded an amyloid nucleation score of 0.582 ± 0.34. In the case of EPVGYSMLGHVIKTVLVLAR, the amyloid nucleation score is reported as “inactive”. For TSSWRVWAYQSAAANMHTDL, the amyloid nucleation score was 5.01 ± 0.06. MLNSMVGQNFVGYNHALFFH showed an amyloid nucleation score of 4.16 ± 0.089. With NLDDYYDNILFTAMR the amyloid nucleation score was 0.201 ± 0.54. YVLSCDPLVRYQGLEDRQQS gave an amyloid nucleation score of 0.31 ± 0.62. Substance YGLALFTRI has an amyloid nucleation score of -0.347 ± 0.44. With RVLFHSSFGRGLVCEISVHV the amyloid nucleation score was -1.01 ± 0.62. YLGDTEQECAF showed an amyloid nucleation score of -1.37 ± 0.3. Substance VYIFQGMR has an amyloid nucleation score of -0.302 ± 0.46.
